In one series the test system is iPS cells. Briefly: Evaluation of maintenance of undifferentiated state (colony form, NANOG staining). Type of series: cell-based, human. As to conditions: FIGS. 4A to 4E; after culture for 1 month. As for the experimental part: iPS cells collected in the same manner as in <Cell adhesiveness evaluation 1> were suspended in TeSR2. The iPS cells were seeded into 6-well plate (Tissue culture-treated, Falcon), onto which each of the samples 1, 2, 5, 6, and 7 used in <Cell adhesiveness evaluation 1> was adsorbed in the same manner as in <Cell adhesiveness evaluation 1>, and cultured in a CO2 incubator at 37° C. Except for the day after the seeding, the medium was replaced every day. In the same method as described above, the cells were subcultured every six days. FIGS. 3A to 3E show forms of the iPS cells cultured on each of the samples.
After being cultured for 1 month under the conditions described above, the cells were immobilized using 4% paraformaldehyde and treated with 1% Triton-X/PBS so as to enhance the membrane permeability. After the cells were subjected to a blocking treatment using an IMAGE IT SIGNAL ENHANCER (trade name, Invitrogen), an anti-human NANOG antibody (AF 1997, R&D Systems, Inc.), an ALEXA FLUOR 555 binding rabbit anti-goat IgG antibody (Invitrogen), and DAPI (Dojindo Molecular Technologies, Inc.) were added thereto for labeling, and the cells were imaged using a fluorescence microscope. FIGS. 4A to 4E show the fluorescence microscopic images.
FIGS. 3A and 4A show the iPS cells cultured on RCP-1; FIGS. 3B and 4B show the iPS cells cultured on RCP-11; FIGS. 3C and 4C show the iPS cells cultured on natural human vitronectin; FIGS. 3D and 4D show the iPS cells cultured on rLaminin-5; and FIGS. 3E and 4E show the iPS cells cultured on rLaminin-511. The scale bar in the images indicates […]. In FIGS. 3A to 3E, the images on the left side are full images of the colony, and the images on the right side are magnified images. In FIGS. 4A to 4E, the images on the left side are images of the cells stained with DAPI, and the images on the right side are images of the cells stained with an anti-NANOG antibody. The scale bar in FIGS. 3A to 4E indicates 200 μm.

The nature of series [1]: Aggregation after dialysis (removal of urea). It counts as physicochemical. The conditions noted are these: after stepwise dialysis against PBS, 1.5 M NaCl, 0.5 M L-arginine, 1 mM EDTA, pH 7.4. As to the method: For RCP-1 to RCP-10 and RCP-17, each of the purified polypeptide solutions was dialyzed using SLIDE-A-LIZER (trade name, 3.5 K MWCO.). Basically, by using a dialysis buffer (PBS, 1.5 M NaCl, 0.5 M L-arginine, 1 mM EDTA, pH 7.4) as an outer dialysate, urea was removed by stepwise dialysis. The concentration of the end-product of dialysis was calculated from the absorbence at 280 nm by using NANODROP (trade name, Thermo Fisher Scientific Inc.).
Furthermore, the indices of hydrophobicity determined for each of the amino acids were summed up, the obtained value was divided by the number of the amino acids, and the outcome was determined as the GRAVY value (see Kyte J., Doolittle R. F. (1982), J. Mol. Biol, 157: 105-132). The GRAVY value is an index of the hydrophilicity and hydrophobicity of a polypeptide calculated from the degree of hydrophobicity of the amino acids contained in each polypeptide. The greater the GRAVY value, the more the polypeptide is hydrophobic, and the smaller the GRAVY value, the more the polypeptide is hydrophilic. The results are shown in Table 4. • Whether or not aggregation was occurred was evaluated based on the scale of G, A, and B as shown below. The results are summarized in Table 4. • G: The formation of an aggregate was not observed. • A: The formation of particles having a particle size of about 100 nm was observed. • B: The formation of an aggregation of particles having a particle size of equal to or greater than 1 mm was visually observed.

These results are taken from patent US9938505B2, “Polypeptide composition and culture method for pluripotent stem cell using same” (FUJIFILM Corporation, priority 2013, dated 2018).

B1: Natural vitronectin: human vitronectin extracted from human blood plasma, BD Biosciences (protein, UniProt P04004 20-478, looked up)
Vitronectin: DQESCKGRCTEGFNVDKKCQCDELCSYYQSCCTDYTAECKPQVTRGDVFTMPEDEYTVYDDGEEKNNATVHEQVGGPSLTSDLQAQSKGNPEQTPVLKPEEEAPAPEVGASKPEGIDSRPETLHPGRPQPPAEEELCSGKPFDAFTDLKNGSLFAFRGQYCYELDEKAVRPGYPKLIRDVWGIEGPIDAAFTRINCQGKTYLFKGSQYWRFEDGVLDPDYPRNISDGFDGIPDNVDAALALPAHSYSGRERVYFFKGKQYWEYQFQHQPSQEECEGSSLSAVFEHFAMMQRDSWEDIFELLFWGRTSAGTRQPQFISRDWHGVPGQVDAAMAGRIYISGMAPRPSLAKKQRFRHRNRKGYRSQRGHSRGRNQNSRRPSRATWLSLFSSEESNLGANNYDDYRMDWLVPATCEPIQSVFFFSGDKYYRVNLRTRRVDTVDPPYPRSIAQYWLGCPAPGHL
Take B1: the “NANOG expression / maintenance of undifferentiated state” value in the series on iPS cells is “strongly expressed NANOG in the entirety of the colony”.

B2: RCP-8: recombinant polypeptide SEQ ID NO: 21; human vitronectin positions 1-55, 270-373, 374-379, C274S (protein)
chain: MDQESCKGRCTEGFNVDKKCQCDELCSYYQSCCTDYTAECKPQVTRGDVFTMPEDESQEESEGSSLSAVFEHFAMMQRDSWEDIFELLFWGRTSAGTRQPQFISRDWHGVPGQVDAAMAGRIYISGMAPRPSLAKKQRFRHRNRKGYRSQRGHSRGRNQNSRRPSR
modifications: Synthetic peptide RCP-8
notes: human vitronectin positions 1-55, 270-373, 374-379, C274S
Take B2: in series [1], the Aggregation entry is “A (The formation of particles having a particle size of about 100 nm was observed.)”.

B3: RCP-17: recombinant polypeptide SEQ ID NO: 39; human vitronectin positions 1-55, 270-277, 295-341, 342-373, C274S (protein)
chain: MDQESCKGRCTEGFNVDKKCQCDELCSYYQSCCTDYTAECKPQVTRGDVFTMPEDESQEESEGSEDIFELLFWGRTSAGTRQPQFISRDWHGVPGQVDAAMAGRIYISGMAPRPSLAKKQRFRHRNRKGYRSQRGHSRGRNQN
modifications: Synthetic peptide RCP-17
notes: human vitronectin positions 1-55, 270-277, 295-341, 342-373, C274S
Take B3: the Aggregation result in series [1] is recorded as “A (The formation of particles having a particle size of about 100 nm was observed.)”.

B4: RCP-7: recombinant polypeptide SEQ ID NO: 20; human vitronectin positions 1-55, 270-373, C274S (protein)
chain: MDQESCKGRCTEGFNVDKKCQCDELCSYYQSCCTDYTAECKPQVTRGDVFTMPEDESQEESEGSSLSAVFEHFAMMQRDSWEDIFELLFWGRTSAGTRQPQFISRDWHGVPGQVDAAMAGRIYISGMAPRPSLAKKQRFRHRNRKGYRSQRGHSRGRNQN
modifications: Synthetic peptide RCP-7
notes: human vitronectin positions 1-55, 270-373, C274S
For the molecule B4, the Aggregation result in series [1] is reported as “A (The formation of particles having a particle size of about 100 nm was observed.)”.

B5: RCP-6: recombinant polypeptide SEQ ID NO: 19; human vitronectin positions 1-55, 270-459, C274S, C411S, C453S (protein)
chain: MDQESCKGRCTEGFNVDKKCQCDELCSYYQSCCTDYTAECKPQVTRGDVFTMPEDESQEESEGSSLSAVFEHFAMMQRDSWEDIFELLFWGRTSAGTRQPQFISRDWHGVPGQVDAAMAGRIYISGMAPRPSLAKKQRFRHRNRKGYRSQRGHSRGRNQNSRRPSRATWLSLFSSEESNLGANNYDDYRMDWLVPATSEPIQSVFFFSGDKYYRVNLRTRRVDTVDPPYPRSIAQYWLGSPAPGHL
modifications: Synthetic peptide RCP-6
notes: human vitronectin positions 1-55, 270-459, C274S, C411S, C453S
As for B5, the Aggregation entry in series [1] is “A (The formation of particles having a particle size of about 100 nm was observed.)”.
